In the supplement of paper PMC12855868:

B1: library; numbered along this chain (parent)
chain: MAAAGGARLLRAASAVLGGPAGRWLHHAGSRAGSSGLLRNRGPGGSAEASRSLSVSARARSSSEDKITVHFINRDGETLTTKGKVGDSLLDVVVENNLDIDGFGACEGTLACSTCHLIFEDHIYEKLDAITDEENDMLDLAYGLTDRSRLGCQICLTKSMDNMTVRVPETVADARQSIDVGKTS

Variants of: B1
Assay: scaled log2 fold change in cell abundance, elesclomol vs control (0 = silent mean, 1 = nonsense mean) (scaled log2 ratio); higher = higher viability under elesclomol (loss of FDX1 cuproptosis function)
Details: glucose 10 mM
[1] = with ABC1 FDX1 KO, elesclomol 5 nM, 14 days
[2] = with HEK293T FDX1 KO, elesclomol 40 nM, 11 days
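Further: variant abundance is its share of total variant reads in each endpoint sample, from next-generation sequencing of the integrated ORF PCR-amplified out of genomic DNA.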

MAAAGGARLLRAASAVLGGPAGRWLHHAGSRAGSSGLLRNRGPGGSAEASRSLSVSARARSSSEDKITVHFINRDGETLTTKGKVGDSLLDVVVENNLDIDGFGACEGTPACSTCHLIFEDHIYEKLDAITDEENDMLDLAYGLTDRSRLGCQICLTKSMDNMTVRVPETVADARQSIDVGKTS [L110P]
scaled log2 fold change [1]: 0.33 | scaled log2 fold change [2]: -0.14

MAAAGGARLLRAASAVLGGPAGRWLHHAGSRAGSSGLLRNRGPGGSAEASRSLSVSARARSSSEDKITVHFINRDGETLTTKGKVGDSLLDVVVENNLDIDGFGACEGTLACSTCHLIFEDHIYEKLDAITDEENDMLDLAYGLTDRSRLGCQICLTKSMDNMTVRVPETVADARQSIDVGQTS [K182Q]
scaled log2 fold change [1]: 0.399 | scaled log2 fold change [2]: -0.145

MAAAGGARLLRAASAVLGGPAGRWLHHAGSRAGSSGLLRNRGPGGSAEASRSLSVSARARSSSEDKITVHFINRDGETLTTKGKVDDSLLDVVVENNLDIDGFGACEGTLACSTCHLIFEDHIYEKLDAITDEENDMLDLAYGLTDRSRLGCQICLTKSMDNMTVRVPETVADARQSIDVGKTS [G86D]
scaled log2 fold change [1]: 0.248 | scaled log2 fold change [2]: -0.689

MAAAGGARLLRAASAVLGGPAGRWLHHAGSRAGSSGLLRNRGPGGSAEASRSLSVSARARSSSEDKITVHFINRDGETLTTKGKVGDSLLDVVVENNLDIDGFGACEGTLACSTCHLIFEDHIYEKLDAITDEENDMLDLAYGLTDRSRLGCQIRLTKSMDNMTVRVPETVADARQSIDVGKTS [C155R]
scaled log2 fold change [1]: -0.248 | scaled log2 fold change [2]: -1.26

MAAAGGARLLRAASAVLGGPAGRWLHHAGSRAGSSGLLRNRGPGGSAEASRSLSVSARARSSSEDKITVHFINRDGETLTTKGKVGDSLLDVVVENNLDIDGFGACEGTLACSTCHLIFEDHIYEKLDAITDEENDMLDLAYGLTDRSRLGCQICLTKSMDNMTVRVPETVADMRQSIDVGKTS [A174M]
scaled log2 fold change [1]: 0.0375 | scaled log2 fold change [2]: -0.275

MAAAGGARLLRAASAVLGGPAGRWLHHAGSRAGSSGLLRNRGPGGSAEASRSLSVSARARSSSEDKITVHFINRDGETLTTKGKVGDSLLDVVVENNLDIDGFGACEGTLAHSTCHLIFEDHIYEKLDAITDEENDMLDLAYGLTDRSRLGCQICLTKSMDNMTVRVPETVADARQSIDVGKTS [C112H]
scaled log2 fold change [1]: 0.978 | scaled log2 fold change [2]: 1.42

MAAAGGARLLRAASAVLGGPAGRWLHHAGSRAGSSGLLRNRGPGGSAEASRSLSVSARARSSSEDKITVHFINRDGETLTTKGKVGDSLLDVVVENNMDIDGFGACEGTLACSTCHLIFEDHIYEKLDAITDEENDMLDLAYGLTDRSRLGCQICLTKSMDNMTVRVPETVADARQSIDVGKTS [L98M]
scaled log2 fold change [1]: 0.0485 | scaled log2 fold change [2]: 0.18

MAAAGGARLLRAASAVLGGPAGRWLHHAGSRAGSSGLLRNRGPGGSAEASRSLSVSARARSSSEDKITVHFINRDGETLTTKGKVGDSLLDVVVENNLDIDGFGAGEGTLACSTCHLIFEDHIYEKLDAITDEENDMLDLAYGLTDRSRLGCQICLTKSMDNMTVRVPETVADARQSIDVGKTS [C106G]
scaled log2 fold change [1]: 1.07 | scaled log2 fold change [2]: 1.6

MAAAGGARLLRAASAVLAGPAGRWLHHAGSRAGSSGLLRNRGPGGSAEASRSLSVSARARSSSEDKITVHFINRDGETLTTKGKVGDSLLDVVVENNLDIDGFGACEGTLACSTCHLIFEDHIYEKLDAITDEENDMLDLAYGLTDRSRLGCQICLTKSMDNMTVRVPETVADARQSIDVGKTS [G18A]
scaled log2 fold change [1]: -0.164 | scaled log2 fold change [2]: 0.946

MAAAGGARLLRAASAVLGGPAIRWLHHAGSRAGSSGLLRNRGPGGSAEASRSLSVSARARSSSEDKITVHFINRDGETLTTKGKVGDSLLDVVVENNLDIDGFGACEGTLACSTCHLIFEDHIYEKLDAITDEENDMLDLAYGLTDRSRLGCQICLTKSMDNMTVRVPETVADARQSIDVGKTS [G22I]
scaled log2 fold change [1]: 0.314 | scaled log2 fold change [2]: 0.699

MAAAGGARLLRAASAVLGGPAGRWLHHAGSRAGSSGLLRNRGPGGSAEASRSLSVSARARSSSEDKITVHFINRDGETLTTKGKVGDSLLDVVVENNLDIDGFGACEGTLACSTCHLIFEDHIYEKLDAITDEENDMLDLAYGGTDRSRLGCQICLTKSMDNMTVRVPETVADARQSIDVGKTS [L144G]
scaled log2 fold change [1]: -0.079 | scaled log2 fold change [2]: -0.323

MAAAGGARLLRAASAVLGGPAGRWLHHAGSRAGSSGLLRNRGPGGSAEASRSLSVSARARSSSEDKITVHFINRDGETLTTKGKVGDSLLDVVVENNLDIDGFGACEGTLACSTCHLIFEDHIYEKLDAITDEENLMLDLAYGLTDRSRLGCQICLTKSMDNMTVRVPETVADARQSIDVGKTS [D136L]
scaled log2 fold change [1]: 0.751 | scaled log2 fold change [2]: 0.113

MAAAGGARLLRAASAVLGGPAGRWLHHAGSRAGSSGLLRNRGPGGSAEASRSLSVSARARSSSEDKITVHFINRDGETLTTKGKVGDSLLDVVVENNLDIDGRGACEGTLACSTCHLIFEDHIYEKLDAITDEENDMLDLAYGLTDRSRLGCQICLTKSMDNMTVRVPETVADARQSIDVGKTS [F103R]
scaled log2 fold change [1]: 1.09 | scaled log2 fold change [2]: 1.06

MAAAGGARLLRAASAVLGGPAGRWLHHAGSRAGSSGLLRNRGPGGSAEASRSLSVSARARSSSEDKITVHFINRDGETLTTKGKVGDSLLDVVVENNLDIDGFGACEGTLACSTCHLIFEDHIYEKLDAITDMENDMLDLAYGLTDRSRLGCQICLTKSMDNMTVRVPETVADARQSIDVGKTS [E133M]
scaled log2 fold change [1]: -0.152 | scaled log2 fold change [2]: -0.547

MAAAGGARLLRAASAVLGGPAGRWLHHAGSRAGSSGLLRNRGPGGSAEASRSLSVSARARSSSEDKITVHFINRDGETLTTKGKVGDSLLDVVVENNLDIDGFGACEGTLACSTCHLIFEDHIYEKLDAITDGENDMLDLAYGLTDRSRLGCQICLTKSMDNMTVRVPETVADARQSIDVGKTS [E133G]
scaled log2 fold change [1]: -0.151 | scaled log2 fold change [2]: -0.168

MAAAGGARLLRAASAVLGGPAGRWLHHAGSRAGSSGLLRNRGPGGSAEASRSLSVSARARSSSEDKITVHFINRRGETLTTKGKVGDSLLDVVVENNLDIDGFGACEGTLACSTCHLIFEDHIYEKLDAITDEENDMLDLAYGLTDRSRLGCQICLTKSMDNMTVRVPETVADARQSIDVGKTS [D75R]
scaled log2 fold change [1]: -0.271 | scaled log2 fold change [2]: -0.0753
